These results are taken from article PMC7265321 (The Journal of Cell Biology, 2020).

Numbering of substitutions follows the chain as printed.

Assay [1] concerns the target MEL-26 (UniProt Q94420). The experiment in a line: Far-Western after SDS-PAGE. Particulars: reference: unmodified wild type; sites S92.
Assay [2] addresses MEL-26 (UniProt Q94420). Description: native dot blot of Katanin. Conditions: reference: unmodified wild type; sites S92.
In assay [3] the target is T1, Katanin with MEI-1 S92D (6xHis-MEI-1 S92D / Strep-MEI-2) (C. elegans, UniProt P34808 1-472; O44740 1-280, S92D).
T1 sequence (looked up) 1: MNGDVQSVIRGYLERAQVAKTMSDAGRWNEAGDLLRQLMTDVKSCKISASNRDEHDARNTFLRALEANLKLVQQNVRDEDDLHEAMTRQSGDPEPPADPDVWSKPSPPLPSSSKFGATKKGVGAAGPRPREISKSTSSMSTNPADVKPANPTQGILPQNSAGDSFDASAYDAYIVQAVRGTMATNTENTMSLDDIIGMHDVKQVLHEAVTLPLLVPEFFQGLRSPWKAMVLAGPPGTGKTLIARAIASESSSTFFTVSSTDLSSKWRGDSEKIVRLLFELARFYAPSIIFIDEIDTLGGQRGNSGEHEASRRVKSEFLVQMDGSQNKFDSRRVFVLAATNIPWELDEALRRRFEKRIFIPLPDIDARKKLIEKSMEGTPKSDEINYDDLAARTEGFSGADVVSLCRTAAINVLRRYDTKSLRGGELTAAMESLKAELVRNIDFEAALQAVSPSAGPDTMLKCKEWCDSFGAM
T1 sequence (looked up) 2: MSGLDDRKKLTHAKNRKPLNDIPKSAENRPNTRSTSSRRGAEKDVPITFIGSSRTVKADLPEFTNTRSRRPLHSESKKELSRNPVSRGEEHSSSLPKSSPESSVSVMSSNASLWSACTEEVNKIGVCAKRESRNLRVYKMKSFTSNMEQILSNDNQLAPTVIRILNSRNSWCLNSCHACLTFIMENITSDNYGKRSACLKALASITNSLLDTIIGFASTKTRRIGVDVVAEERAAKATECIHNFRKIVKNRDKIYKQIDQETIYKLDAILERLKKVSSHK
The experiment in a line: overlay or dot blot.

A further assay deals with T2, MEI-1 S92-aaPho-6xHis (C. elegans, UniProt P34808 1-472, phosphoserine at 92 (100% by mass spectrometry)).
T2 sequence (looked up): T1 sequence (looked up) 1 with D92S
The experiment in a line: far-Western.

The next assay addresses T3, 6xHis-MEI-1 S92D (C. elegans, UniProt P34808 1-472, S92D).
T3 sequence (looked up): T1 sequence (looked up) 1
The experiment in a line: far-Western.

On to “MEI-1 (Katanin p60 catalytic subunit) (from UniProt P34808) S92-aaPho (phosphoserine by genetic code expansion)”, for which the “binding against the reference” value with MEL-26 [1] and in the assay with MEL-26 [2] was “stronger” throughout.

B1: GST-MEL-26 (natural protein, C. elegans, UniProt Q94420 1-395, looked up)
chain: MEPRIDGGVFIGGIGNSGNEMCSNGVPALGVSSQTEIKVEKVQHTWTVKNFSHCYQEYLENFVYLQRGDEQLTWSIKIYPKGNGENNKDFVFLCLNRVINNNVKAGKIGFKSQFKLRTAENKDIEMRIHPNPSHSDYVSYIKRDVLFPQIMPRDMIIVNVEIDVAVETITTTNEPIQFEPTNSEQQLIEDYQRLFSQELLCDFAINVNGKIIRAHKAVLAARSPVFNAMLTHQDTDEAKSSMMYINDMDYDVIYEMVYYIYCGRCNKDITDMATALLIAADKYRLEELKSHCEKYLVENINIENACSLLIIGDLYSAPKLRKRAVTYILARPKNVTGTPGWEDILKGHPNLITDIFSQIDRQSSTGATSSVSNLPGVPMDIPGITGNIVPPPSGL
B1: the binding result (in assay [3]; with MEI-1 S92-aaPho-6xHis; with 6xHis-MEI-1 S92D) was “binds” each time.
